B1: CPEB3 Ribozyme (parent)
chain: GGGGGCCACAGCAGAAGCGUUCACGUCGCGGCCCCUGUCAGAUUCUGGUGAAUCUGCGAAUUCUGCUGU

Variants of: B1
Assay: self-cleavage, relative activity (ratio to wild type); higher = more cleavage; co-transcriptional

Variant | self-cleavage
GGCGGCCACAGCAGAAGCGUUCACGUCGCGGCCGCUGUCAGAUUCUGGUGAAUCUGCGAAUUCUGCUGU [G3C C34G] | 0.783
GGCGGCCACAGCAGAAGCGUUCAUGUCGCGGCCCCUGUCAGAUUCUGGUGAAUCUGCGAAUUCUGCUGU [G3C C24U] | 0.0425
GGCGGCCACAGCAGAAGCGUUCAGGUCGCGGCCCCUGUCAGAUUCUGGUGAAUCUGCGAAUUCUGCUGU [G3C C24G] | 0.0519
GGAGGCCACAGCAGAAGCGUUCACGUCGCGGCCCCUGUCAGAUUCUGGUGAACCUGCGAAUUCUGCUGU [G3A U53C] | 0.416
GGAGGCCACAGCAGAAGCGUUCACGUCGCGGCCCCUGUCAGAUUCUGGUGAAGCUGCGAAUUCUGCUGU [G3A U53G] | 0.284
GGCGGCCACCGCAGAAGCGUUCACGUCGCGGCCCCUGUCAGAUUCUGGUGAAUCUGCGAAUUCUGCUGU [G3C A10C] | 0.175
GGCGGCCACGGCAGAAGCGUUCACGUCGCGGCCCCUGUCAGAUUCUGGUGAAUCUGCGAAUUCUGCUGU [G3C A10G] | 0.215
GGCGGCCACAGCAGAAGCGUUCACGUCGCGGCACCUGUCAGAUUCUGGUGAAUCUGCGAAUUCUGCUGU [G3C C33A] | 0.0485
GGCGGCCACAGCAGAAGCGUUCACGUCGCGGCUCCUGUCAGAUUCUGGUGAAUCUGCGAAUUCUGCUGU [G3C C33U] | 0.0583
GGAGGCCACAGCAGAAGCGUUCACGUCGCGGCCCCUGUCAGAUUCUGGAGAAUCUGCGAAUUCUGCUGU [G3A U49A] | 0.627
GGAGGCCACAGCAGAAGCGUUCACGUCGCGGCCCCUGUCAGAUUCUGGGGAAUCUGCGAAUUCUGCUGU [G3A U49G] | 0.392
GGCGGCCACAGCAGAAGCGUUCACGUCGCGGCCCCUGUCAGAUUCUGGUGAGUCUGCGAAUUCUGCUGU [G3C A52G] | 0.0775
GGCGGCCACAGCAGAAGCGUUCACGUCGCGGCCCCUGUCAGAUUCUGGUGAUUCUGCGAAUUCUGCUGU [G3C A52U] | 0.075
GGCGGCCACAGCAGAAGCGUUCACGUCGCGGCCCCUGUCAGAUUCUGGUGACUCUGCGAAUUCUGCUGU [G3C A52C] | 0.0723
GGCGGCCACAGCAGACGCGUUCACGUCGCGGCCCCUGUCAGAUUCUGGUGAAUCUGCGAAUUCUGCUGU [G3C A16C] | 0.0367
GGCGGCCACAGCAGAUGCGUUCACGUCGCGGCCCCUGUCAGAUUCUGGUGAAUCUGCGAAUUCUGCUGU [G3C A16U] | 0.0415
GGCGGCCACAGCAGAGGCGUUCACGUCGCGGCCCCUGUCAGAUUCUGGUGAAUCUGCGAAUUCUGCUGU [G3C A16G] | 0.162
GGCGGCCACAGCAGAAGGGUUCACGUCGCGGCCCCUGUCAGAUUCUGGUGAAUCUGCGAAUUCUGCUGU [G3C C18G] | 0.0441
GGCGGCCACAGCAGAAGAGUUCACGUCGCGGCCCCUGUCAGAUUCUGGUGAAUCUGCGAAUUCUGCUGU [G3C C18A] | 0.058
GGCGGCCACAGCAGAAGUGUUCACGUCGCGGCCCCUGUCAGAUUCUGGUGAAUCUGCGAAUUCUGCUGU [G3C C18U] | 0.0442

Variant | self-cleavage
GGCGGCCACAGCCGAAGCGUUCACGUCGCGGCCCCUGUCAGAUUCUGGUGAAUCUGCGAAUUCUGCUGU [G3C A13C] | 0.0417
GGCGGCCACAGCUGAAGCGUUCACGUCGCGGCCCCUGUCAGAUUCUGGUGAAUCUGCGAAUUCUGCUGU [G3C A13U] | 0.0542
GGAGGCCACAGCAGAAGCGUUCACGUCGCGGCCCCUGUCAGAUGCUGGUGAAUCUGCGAAUUCUGCUGU [G3A U44G] | 0.331
GGAGGCCACAGCAGAAGCGUUCACGUCGCGGCCCCUGUCAGAUACUGGUGAAUCUGCGAAUUCUGCUGU [G3A U44A] | 0.54
GGAGGCCACAGCAGAAGCGUUCACGUCGCGGCCCCUGUCAGAUCCUGGUGAAUCUGCGAAUUCUGCUGU [G3A U44C] | 0.474
GGAGGCCACAGCAGAAGCGUUCACGUCGCGGCCCCUGGCAGAUUCUGGUGAAUCUGCGAAUUCUGCUGU [G3A U38G] | 0.113
GGAGGCCACAGCAGAAGCGUUCACGUCGCGGCCCCUGUCAGAUUCGGGUGAAUCUGCGAAUUCUGCUGU [G3A U46G] | 0.688
GGCGGCCUCAGCAGAAGCGUUCACGUCGCGGCCCCUGUCAGAUUCUGGUGAAUCUGCGAAUUCUGCUGU [G3C A8U] | 0.123
GGCGGCCGCAGCAGAAGCGUUCACGUCGCGGCCCCUGUCAGAUUCUGGUGAAUCUGCGAAUUCUGCUGU [G3C A8G] | 0.0364
GGCGGCCCCAGCAGAAGCGUUCACGUCGCGGCCCCUGUCAGAUUCUGGUGAAUCUGCGAAUUCUGCUGU [G3C A8C] | 0.0756
GGAGGCCACAGCAGAAGCGUUCACGUCGCGGCCCCUGUCAGAUUCUGGUGAAUCUGCGAACUCUGCUGU [G3A U61C] | 0.246
GGAGGCCACAGCAGAAGCGUUCACGUCGCGGCCCCUGUCAGAUUCUGGUGAAUCUGCGAAAUCUGCUGU [G3A U61A] | 0.269
GGCGGCCAGAGCAGAAGCGUUCACGUCGCGGCCCCUGUCAGAUUCUGGUGAAUCUGCGAAUUCUGCUGU [G3C C9G] | 0.166
GGCGGCCAAAGCAGAAGCGUUCACGUCGCGGCCCCUGUCAGAUUCUGGUGAAUCUGCGAAUUCUGCUGU [G3C C9A] | 0.511
GGCGGCCACAGCAGAAGCGUUCACGUCGCGGCCCCUGUCAGAUUCUGGUGAAUCUGCGACUUCUGCUGU [G3C A60C] | 0.0624
GGCGGCCACAGCAGAAGCGUUCACGUCGCGGCCCCUGUCAGAUUCUGGUGAAUCUGCGAGUUCUGCUGU [G3C A60G] | 0.0121
GGCGGCCACAGCAGAAGCGUUCACGUCGCGGCCCCUGUCAGAUUCUGGUGAAUCUGCGGAUUCUGCUGU [G3C A59G] | 0.0736
GGCGGCCACAGCAGAAGCGUUCACGUCGCGGCCCCUGUCAGAUUCUGGUGAAUCUGCGCAUUCUGCUGU [G3C A59C] | 0.0244
GGCGGCCACAGCAGAAGCGUUCACGUCGCGGACCCUGUCAGAUUCUGGUGAAUCUGCGAAUUCUGCUGU [G3C C32A] | 0.0311

Reference: the RNAGym collection of RNA variant scans (doi:10.7554/elife.80360)
